{
  "source": "paper PMC8005036",
  "about": "(Vaccines, 2021)",
  "target": "the molecule itself",
  "assay": "negative-stain transmission elect",
  "data": [
    {"protein": "LS-SpyTag (Aquifex aeolicus lumazine synthase multimeric protein scaffold particle with SpyTag) (other, also called LS-ST; LS-MPSPs; copies: 60) MQIYEGKLTAEGLRFGIVASRFNHALVDRLVEGAIDAIVRHGGREEDITLVRVPGSWEIPVAAGELARKEDIDAVIAIGVLIRGATPHFDYIASEVSKGLANLSLELRKPITFGVITADTLEQAIERAGTKHGNKGWEAALSAIEMANLFKSLRGGGGSGGGGSGGGGSAHIVMVDAYKPTK", "values": [
      {"measurement": "binding result", "value": "binds"}
    ]}
  ]
}
